In PMC4649674, “Structural insights into HetR−PatS interaction involved in cyanobacterial pattern formation” (Scientific Reports, 2015):
Positions count from the first letter of the chain named.

Key:
HetR = details: cited from earlier work
Source text: Heterocyst pattern was first speculated to be controlled by a pentapeptide RGSGR (designated as PatS5), a motif which was identified first as the C-terminal five residues of PatS[16], and later within a putative ketoacyl reductase HetN[17].

[1] = tested on: E253D mutant strain (hetR); set-up: method as in PMID 21942265; details: in vivo; cited from earlier work
HetR mutant E253A = molecular target: T1, HetR mutant E253A (Nostoc sp., UniProt P27709, E253A); experiment: ITC binding of PatS6 to HetR mutant E253A; set-up: species or system Anabaena sp. PCC 7120; details: 25 °C, 1 M NaCl, 5% (v/v) glycerol, 10 mM Tris-Cl, pH 7.8, protein 50 μM, PatS6 750 μM
T1 construct: 15 times (150 or 750 μM) to that of the full-length protein or 40 times (2 mM) to that of HetRHood; six-histidine tag (N); made in house; host or cells: Escherichia coli Rosetta (DE3)
Experimental: (§1) The selenium-methionine-labeled HetR (SeMet HetR) was expressed in E. coli strain B834 (DE3) (Novagen, Madison). Transformed cells were first cultured in 2 × YT medium at 37 °C overnight, then harvested and washed twice with the M9 medium. Then the cells were cultured in SeMet medium (M9 medium with 50 mg/l SeMet and other essential amino acids at 50 mg/l) to an OD600 nm of approximately 1.0. The following steps in protein expression and purification were the same as those for the native protein. Site-directed mutagenesis was performed using the QuickChange site-directed mutagenesis kit (Stratagene, La Jolla) with the plasmid encoding the wild-type HetR as the template. The mutant protein was expressed, purified and stored in the same manner as the wild-type protein.
(§2) The related Kd values are
(§3) calculated and shown above the figures. ND stands for “not detectable”.

[2] = molecular target: T2, HetR double mutant D270A/D278A (Nostoc sp., UniProt P27709, D270A/D278A); experiment: ITC binding of PatS6 to HetR double mutant D270A/D278A; set-up: species or system Anabaena sp. PCC 7120; details: 25 °C, 1 M NaCl, 5% (v/v) glycerol, 10 mM Tris-Cl, pH 7.8, protein 50 μM, PatS6 750 μM
T2 construct: 15 times (150 or 750 μM) to that of the full-length protein or 40 times (2 mM) to that of HetRHood; six-histidine tag (N); made in house; host or cells: Escherichia coli Rosetta (DE3)
Experimental: as §1, §2, §3

[3] = molecular target: PatS5 (Nostoc sp. PCC 7120); details: cited from earlier work
[4] = molecular target: PatS6 (Nostoc sp. PCC 7120); details: cited from earlier work
HetR D278A = molecular target: T3, HetR D278A (Anabaena sp. PCC 7120, UniProt P27709 1-299, D278A); experiment: ITC; iTC200, 25 °C; protein in the sample cell (10 or 50 μM), PatS6 in the syringe (150 or 750 μM; 2 mM for HetR_(Hood)); 1 M NaCl, 5% (v/v) glycerol, 10 mM Tris-Cl, pH 7.8; details: both partners purified
T3 construct: HetR of Anabaena sp; PCC 7120, point mutant made from the plasmid of wild-type HetR; source: E. coli, purified in the same manner as the wild-type protein
T3 sequence (looked up): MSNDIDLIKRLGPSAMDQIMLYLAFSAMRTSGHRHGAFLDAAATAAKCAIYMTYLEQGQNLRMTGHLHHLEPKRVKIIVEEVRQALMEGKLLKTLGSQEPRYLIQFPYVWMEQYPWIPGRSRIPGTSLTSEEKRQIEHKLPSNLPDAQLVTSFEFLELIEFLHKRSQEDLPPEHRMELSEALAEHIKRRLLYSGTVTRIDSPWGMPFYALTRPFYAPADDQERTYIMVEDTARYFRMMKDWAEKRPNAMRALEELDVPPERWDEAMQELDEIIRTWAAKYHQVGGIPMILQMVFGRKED

HetR D270A = molecular target: T4, HetR D270A (Anabaena sp. PCC 7120, UniProt P27709 1-299, D270A); experiment: as above; details: both partners purified
T4 construct: HetR of Anabaena sp; PCC 7120, point mutant made from the plasmid of wild-type HetR; source: E. coli, purified in the same manner as the wild-type protein
T4 sequence (looked up): T3 sequence (looked up) with D270A, A278D

HetR D256A = molecular target: T5, HetR D256A (Anabaena sp. PCC 7120, UniProt P27709 1-299, D256A); experiment: as above; details: both partners purified
T5 construct: HetR of Anabaena sp; PCC 7120, point mutant made from the plasmid of wild-type HetR; source: E. coli, purified in the same manner as the wild-type protein
T5 sequence (looked up): T3 sequence (looked up) with D256A, A278D

HetR E254A = molecular target: T6, HetR E254A (Anabaena sp. PCC 7120, UniProt P27709 1-299, E254A); experiment: as above; details: both partners purified
T6 construct: HetR of Anabaena sp; PCC 7120, point mutant made from the plasmid of wild-type HetR; source: E. coli, purified in the same manner as the wild-type protein
T6 sequence (looked up): T3 sequence (looked up) with E254A, A278D

[5] = molecular target: T7, HetR (wild type, full-length) from Anabaena sp. PCC 7120 (Anabaena sp. PCC 7120, UniProt P27709 1-299); experiment: as above; details: both partners purified
T7 construct: HetR, transcription factor of Anabaena sp; PCC 7120; DBD 1-98, flap domain 99-216, hood domain 217-299; Intertwined homodimer in the crystal with 21-bp hetP promoter DNA; A SeMet-labelled form (E. coli B834) was used for phasing only; also called wild-type HetR; full-length HetR; source: E. coli Rosetta (DE3), purified (Ni-NTA, Superdex 75)
T7 sequence (looked up): T3 sequence (looked up) with A278D

[6] = molecular target: T8, HetR hood domain (Asp219-Asp299), HetR_(Hood) (Anabaena sp. PCC 7120, UniProt P27709 219-299); experiment: as above; details: both partners purified
T8 construct: HetR of Anabaena sp; PCC 7120, individual hood domain, residues Asp219-Asp299; Entwined dimer in the crystal; four molecules (two dimers) in the asymmetric unit; source: E. coli Rosetta (DE3), purified (Ni-NTA, Superdex 75)
T8 sequence (looked up): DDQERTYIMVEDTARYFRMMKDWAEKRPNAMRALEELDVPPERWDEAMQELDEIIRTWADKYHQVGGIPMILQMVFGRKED

HetR R223W = molecular target: T9, HetR R223W (Anabaena sp. PCC 7120, UniProt P27709 1-299, R223W); experiment: as above; details: both partners purified
T9 construct: HetR of Anabaena sp; PCC 7120, point mutant made from the plasmid of wild-type HetR; source: E. coli, purified in the same manner as the wild-type protein
T9 sequence (looked up): T3 sequence (looked up) with R223W, A278D

T1 sequence (P27709 whole entry E253A): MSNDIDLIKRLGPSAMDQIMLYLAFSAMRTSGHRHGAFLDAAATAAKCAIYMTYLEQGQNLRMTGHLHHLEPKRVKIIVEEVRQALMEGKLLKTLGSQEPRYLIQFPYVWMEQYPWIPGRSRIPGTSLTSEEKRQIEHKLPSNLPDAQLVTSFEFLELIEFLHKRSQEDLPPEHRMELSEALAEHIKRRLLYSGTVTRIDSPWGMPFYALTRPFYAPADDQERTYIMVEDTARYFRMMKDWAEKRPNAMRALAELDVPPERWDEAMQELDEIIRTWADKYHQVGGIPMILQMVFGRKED
T2 sequence (P27709 whole entry D270A/D278A): as the sequence (P27709 whole entry E253A) above, with A253E, D270A, D278A counted along it

In the case of “RGSGR [PatS5, pentapeptide RGSGR, C-terminal five residues of PatS]”, the “effect of PatS5 binding on DNA-binding capacity of HetR” value (HetR) is given as “may abolish the DNA-binding capacity of HetR”, the “molecules bound per HetR homodimer” value (HetR; in vitro binding assays) is given as “two” and the “sensitivity of E253D mutant strain to PatS5” value [1] is given as “drastically reduced sensitivity to PatS5”.

With `N=C(N)NCCC[C@H](NC(=O)CNC(=O)[C@H](CO)NC(=O)CNC(=O)[C@H](CCCNC(=N)N)NC(=O)[C@@H](N)CCC(=O)O)C(=O)O` [PatS6] the “PatS6-binding affinity towards E253A” value (HetR mutant E253A) was “totally abolished the PatS6-binding affinity” and the “binding affinity towards D270A/D278A” value [2] was “no detectable binding affinity”.

For HetR (from UniProt P27709), the Kd [3] is listed as 227 nM and the Kd [4] is listed as 7 nM.

B1: PatS6 (PatS-derived hexapeptide ERGSGR) (peptide)
peptide: ERGSGR
notes: PatS-derived hexapeptide; RGSGR is the C-terminal five residues of PatS of Anabaena sp; PCC 7120; source: synthetic peptide (GL Biochem, Shanghai)
Molecule B1 has a Kd (HetR D278A) of 1630 nM, a Kd (HetR D270A) of 2250 nM and a Kd (HetR D256A) of 427 nM. It also gave a Kd (HetR E254A) of 91 nM, a Kd [5] of 12 nM and a Kd [6] of 24000 nM. The Kd (HetR R223W) was 2350 nM.
